Columns and labels:
[1] = system: mice (female BALB/c); assay: Mouse carrageenan-induced inflammatory pain model, thermal hyperalgesia (paw withdrawal latency); format: in vivo; conditions: Example 8; 48 and 96 hours; single mAb 900 μg; diclofenac 30 mg/kg
Experimental: To evaluate whether neutralization of IL-1α and IL-1β produces antinociceptive effects in inflammatory pain conditions, anti-IL-1α and anti-IL-1β mAbs were evaluated for the ability to reverse established pain in the mouse carrageenan paw model of nociceptive pain.
The efficacy of the anti-IL-1α and anti-IL-1β mAbs was evaluated when administered alone or in combination in the mouse carrageenan model (FIG. 15). At 30 hours after intraplantar carrageenan injection: 900 μg of either anti-IL-1α mAb, anti-IL-1β mAb, or their combination were administered in different groups of mice. Thermal hyperalgesia testing was performed 48 and 96 hours after carrageenan. […] The antinociceptive effect in 900 μg combination group was 53±7% at 48 hours, and 82±11% at 96 hours.
Different groups of animals were treated either with vehicle or a combination of anti-IL-1α and anti-IL-1β mAbs (100, 300, or 900 μg/mouse of each mAb) 30 hours after carrageenan injection. […] The antinociceptive effect in 900 μg treatment group was 70±9% at 48 hours, and 62±4% at 96 hours. Diclofenac (30 mg/kg), a non-steroidal, anti-inflammatory analgesic, was included as positive control in the study, and it increased the mean paw withdrawal latency of the injured paw to 7.01±0.58 s at 48 hours and 7.48±0.34 s at 96 hours when administered p.o. 60 minutes before testing (p<0.01 at both time points).

[2] = system: Male SV129 mice; assay: Destabilization of medial meniscus (DMM) model of osteoarthritis, cartilage degeneration (Chambers scores); format: in vivo, mouse; conditions: Example 3.3.6 (FIG. 7); 8 weeks; mAbs 6 mg/kg alone or in combination
Description: (§1) Male SV129 mice weighing approximately 30 grams, housed 5/cage, were anesthetized on Day 0 with ketamine/xylazine cocktail, administered intraperitoneally (ip), and then the medial collateral ligament was exposed by blunt dissection, and transected to reflect the meniscus toward the femur. The joint space was closed with 8-0 vicryl suture. The skin was closed with wound glue. For sham surgeries, a vertical skin incision was made over the medial aspect of the knee and the joint capsule was opened. The capsule was closed with 8-0 vicryl suture and the skin was closed with wound glue. Groups of animals were then treated with intraperitoneal (ip) injections of antibody or vehicle according to the study design table below. Two sex-matched, age-matched, and strain-matched naïve mice were also included in the study. Animals were euthanized after 8 weeks of treatment, and knee joints were harvested in 10% neutral buffered formalin.
Formalin-fixed samples were decalcified, and specimens were sectioned in the frontal plane into 15 step sections each. Each section was approximately 6 μm thick, and step sections were separated by 70 μm. All slides were stained with toluidine blue (T. Blue). Slides were assessed according to the Chambers method (Chambers et al. (2001) Arthritis Rheum 44:1455-65) for cartilage degeneration (see below) by a board-certified veterinary pathologist. Each of the four cartilage surfaces, the medial femoral condyle (MFC), the medial tibial plateau (MTP), the lateral femoral condyle (LFC), and the lateral tibial plateau (LTP), was scored from 0-6 according to the scale in the table below.
as §1, with “8-0 vicryl suture, and the” for “8-0 vicryl suture and the”, “injections of anti-mIL-1α monoclonal antibody, anti-mIL-1β (alone or in combination), mIL-1α/βDVD-Ig binding protein, or vehicle” for “injections of antibody or vehicle”, “design table below (Table 24). Animals were” for “design table below. Two sex-matched, age-matched, and strain-matched naïve mice were also included in the study. Animals were”, “weeks of treatment and knee” for “weeks of treatment, and knee”
Male SV129 mice weighing approximately 30 grams had the medial collateral ligament exposed by blunt dissection, and transected to reflect the meniscus toward the femur. The joint space was closed with 8-0 vicryl suture. The skin was closed with wound glue. For sham surgeries, a vertical skin incision was made over the medial aspect of the knee and the joint capsule was opened. The capsule was closed with 8-0 vicryl suture, and the skin was closed with wound glue. Groups of animals were then treated per os (po) or via intraperitoneal (ip) injections of vehicle or treatments according to the study design table below. Three sex-matched, age-matched, and strain-matched naïve mice were also included in the study. Animals were euthanized after 4 weeks of treatment, and knee joints were harvested in 10% neutral buffered formalin.

B1: 10G11: mouse anti-mouse IL-1β monoclonal antibody (clone 10G11) from IL-1α/β double KO mice (antibody, V domains shown)
VH: EVQLQQSGPELVKPGTSVKMSCKTSGYTFTSYVMHWVKQKPGQGLEWIGYIIPYNDNTKYNEKFKGKATLTSDKSSSTAYMELSSLTSEDSAVYYCARRNEYYGSSFFDYWGQGTTLTVSS
VL: DIQMTQSPASLSASVGETVTITCRGSGILHNYLVWYQQKQGKSPQLLVYSAKILADGVPSRFSGSGSGTQYSLKINSLQPEDFGSYYCQHFWSTPFTFGSGTKLEIKR
modifications: heavy chain variable domain of 10G11; light chain variable domain of 10G11
notes: mouse anti-mouse IL-1β monoclonal antibody (clone 10G11) from IL-1α/β double KO mice
thermal hyperalgesia / antinociceptive effect [1]: no significant antinociceptive effect | mean sum Chambers scores and mean maximum Chambers scores (cartilage degeneration) [2]: not statistically significant
